Here are results for 167 variants from the RNAGym collection of RNA variant scans (doi:10.7554/elife.90254).

The chains are these.
B1: OR4K15 (parent)
chain: GUUAACGGUCAUAGGCCAUGGAAACUAGGAGCACCAUUUCGCUGCCAGUGAAGAAAUGAACAAAGAAAAUCUGGGCCAGGCAGGCAUCAAAAGAAAUAGUCUUGCGCUCAACCAGAAAGUCUGUAAUCAUUUUAAGGGUA

The variants in the data set derive from B1. As to the kind of experiment: self-cleavage, relative activity (ratio to wild type); higher = more cleavage; in vitro, sequencing; the parent is a self-cleaving ribozyme.
Turning to A62G A126C, the self-cleavage is 0.62. The result for U57C U103A reads 0.15.

As for U57C U103G, the self-cleavage was 0.02. Next, A59G C112G: 0.03. The result for G58U A67U reads 2.46; that for G58U A67G, 0.88; that for C61U A82G, 0.28. Next, A60G A135G: 1.71; U57G A94G: 1.41; A62G A64G: 0.94. A60C G65A: the self-cleavage was 0.54.

As to A60G G115A, the self-cleavage came to 0.04. Next, A62G A66U: 1.78; A62G A66G: 1.48. A62G A78G: the self-cleavage amounted to 0.27. The result for A59G A116G reads 0.77.

With A59G A116U, the self-cleavage amounted to 0.32.

In the case of A60G C71U, the self-cleavage stood at 0.1. The result for A59C C113A reads 0.02; that for A59G A91G, 0.8; that for A60G U139A, 1.12.

With A60G U139C, the self-cleavage was determined as 0.47. The result for A62C G83A reads 2.18; that for G58A A118G, 0.52; that for A60C U122C, 1.62. Next, A59G A117G: 1.71; A60U A86G: 0.74. Turning to A60G A96G, the self-cleavage was found to be 1.47.

As for A60G A96U, the self-cleavage is 1.96.

Consider G58U U100C, for which the self-cleavage came to 2.08. The result for U57C U72C reads 0.04. Next, U57C U72A: 0.18; A59U C109U: 0.43; A60G A110G: 0.13. The result for A60G A110U reads 1.3.

For the variant U57C G137C, the self-cleavage is 0.73. Next, U57C G137U: 2.18; A60U A118U: 0.99; A59G U70A: 0.56. The result for A59G U70C reads 0.84. Next, A59U A116U: 0.2; A62C A140U: 1.7. Take U57C U97C: the self-cleavage was determined as 1.09.

On to A59G C105U, for which the self-cleavage was 0.17.

Turning to A60G A91U, the self-cleavage turned out to be 1.31. Next, A60G A91G: 0.99; A59U A63G: 1.22; C61U U133C: 1.21. The result for A62C A116U reads 0.63; that for A62C A116G, 0.78. On to G58U G106A, for which the self-cleavage is 0.01. Consider U57C A140U, for which the self-cleavage came to 1.78. The result for C61U G136A reads 2.1. Take A62G A86U: the self-cleavage was found to be 2.08.

A59U A94G: the self-cleavage stood at 1.02. Next, A60G G84U: 0.43; A60G C112U: 0.02. For A59U U127G, the self-cleavage stood at 1.12. The result for A59U U127C reads 0.28; that for G58A U103C, 1.09; that for A59U A110G, 0.08.

On to A59G A69U, for which the self-cleavage worked out at 1.7. Next, A59G A69C: 0.6; A59U A67G: 1.25. The result for G58A U133C reads 1.94; that for A60U A89U, 1.68. For A60U A89G, the self-cleavage worked out at 1.73.

Consider A62G A69G, for which the self-cleavage is 0.68. The result for A62G A69U reads 1.87; that for A60G U87C, 0.93. The result for A62G A90G reads 0.54; that for A62G A90U, 0.76; that for U57C A126G, 0.4.

With A60C U120C, the self-cleavage is 0.98. Next, A59G A110C: 0.44; A59G A110U: 0.97; A59G A110G: 0.17.

As for A62G A114G, the self-cleavage was 0.44. The result for A59G U100A reads 0.63.

Consider A59G U100C, for which the self-cleavage was found to be 2.06. The result for U57G reads 1.34; that for A59U A86U, 1.92. Next, A59U A86G: 0.7; A59G A98G: 0.67.

In the case of A60G U70A, the self-cleavage stood at 1.3. Next, A60G G136C: 0.72; A59G G115U: 0.13; A59U A90C: 1.63. The result for A60C U100A reads 0.68.

Regarding A59U U124A, the self-cleavage was found to be 0.51. The result for A59U U124C reads 0.69; that for A59U U100A, 0.74; that for A59U U100G, 2.13. The result for A59U U100C reads 2.73; that for U57C U70A, 0.68. Next, A59G A129U: 0.86. Turning to A59G A129C, the self-cleavage was 0.55. Next, A62C U87C: 1.51; A62G A117G: 1.43. Next, A59G G79A: 0.28. Next, A60G U72A: 0.17; A60G U72C: 0.17; A59G C77U: 1.7. For the variant A59G A89G, the self-cleavage stood at 1.09.

For the variant A60G A129G, the self-cleavage stood at 0.49.

As to A59G A135G, the self-cleavage turned out to be 0.84. For A62G A118G, the self-cleavage was 1.01. Next, A62G A118U: 0.73; A59U A92G: 0.79; U57C U130C: 0.78. Regarding U57C A135U, the self-cleavage was 1.02.

For the variant A60U G83A, the self-cleavage was determined as 1.65. The result for U57G A110G reads 0.17; that for A59C U127C, 1.18.

With A59G A64U, the self-cleavage stood at 0.74. The result for A59G A64G reads 1.37. On to G58U A90G, for which the self-cleavage turned out to be 1.25.

Take A60C A117U: the self-cleavage was 0.56.

For U57C U139C, the self-cleavage is 1.94. Next, A59G U102C: 1.5; A59G U102A: 0.81; A60U A98G: 0.39. Next, A62G A116U: 0.35; A59C U102C: 1.51. Next, A59C U103C: 0.57; A60G A64U: 1.46; A59G A78U: 0.28. On to A60G U100C, for which the self-cleavage stood at 1.35. For the variant C61U U132C, the self-cleavage is 1.89. Turning to U57G A91G, the self-cleavage stood at 0.52.

As for C61U A117G, the self-cleavage turned out to be 1.54. Next, C61U U72A: 0.19. Next, A60U U108C: 0.01; A60U A64G: 0.65; A62G A94G: 1.52.

Turning to A60U A96G, the self-cleavage amounted to 1.78. Next, C61U G115A: 0.08; A62C U130C: 0.71. Next, A60U A91G: 1.34; A60G U124C: 0.63. Next, A62C: 1.64. In the case of A62G, the self-cleavage was 1.23. Next, A60G U103C: 0.78. As for A60G U103G, the self-cleavage turned out to be 0.05. Next, A60C A69G: 2; A59U A134G: 1.02. The result for A60U A62G reads 1.72; that for U57G A140U, 1.23; that for A60U G136A, 1.51. The result for A60G A67C reads 0.77; that for A60G A67U, 2.01. As for A60C A63G, the self-cleavage was 2.15. Next, C61U C101U: 0.54; U57C G74A: 0.28; U57C G74U: 0.39. The result for A60G A134G reads 0.69; that for C61U A94G, 1.63; that for A59G U87G, 0.3. Next, A59G U87C: 1.19. A59G U87A: the self-cleavage came to 1.11. Next, G58A U139C: 0.57. Next, A60G U127C: 0.93; A60G U127A: 1.87. On to A60G U127G, for which the self-cleavage came to 1.52.

On to A60C A66G, for which the self-cleavage was 0.72. A60G A94U: the self-cleavage amounted to 2.32. The result for A60U A117G reads 1.84.
